T1: human BMP6 (R&D Systems, Cat #507-BP) (human, UniProt P22004 375-513, limits assumed)
T1 construct: Bought protein (R&D Systems 507-BP or 507-BP/CF); also called hBMP6; hBMP-6
T1 sequence: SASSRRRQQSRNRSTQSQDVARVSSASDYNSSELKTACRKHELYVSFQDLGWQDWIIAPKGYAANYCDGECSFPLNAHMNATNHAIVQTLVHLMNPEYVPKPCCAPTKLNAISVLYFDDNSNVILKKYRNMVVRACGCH

T2: Human GDF3 (human, UniProt Q9NR23 251-364)
T2 sequence (looked up): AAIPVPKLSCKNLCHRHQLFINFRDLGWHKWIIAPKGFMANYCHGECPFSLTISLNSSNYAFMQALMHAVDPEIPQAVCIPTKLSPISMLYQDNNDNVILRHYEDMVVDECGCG


Experiments:
[1] = biological target: T1, human BMP6 (R&D Systems, Cat #507-BP); assay: competition ELISA, antibody titrated against 2.5 nM biot-hBMP6, plate-coated hHJV-hFc as competitor
Method: Experiments were carried out using the following procedure. Receptors were coated in Hank's Balanced Salt Solution (HBSS) separately at a concentration of 5 μg/mL for hHJV-hFc and […] for hActR2a-hFc on a 96-well microtiter plate overnight at 4° C. […] In other microtiter plates, a constant amount of 2.5 nM of biot-BMP6 (for HJV capture) or 1.5 nM biot-BMP6 (for ActR2a capture) protein was titrated with anti-BMP6 antibodies or isotype control antibodies ranging from 5.1 pM to 300 nM in serial dilution in HBSS with 1.0% BSA and […] heparin. These antibody-protein complexes, after a one-hour incubation, were transferred to the microtiter plate coated with hHJV-hFc or hActR2a-hFc. After two hours of incubation at room temperature, the wells were washed, and plate-bound biot-BMP6 was detected with neutravidin conjugated with horseradish peroxidase (HRP) (Thermo Scientific, Cat #31030). The plates were then developed using TMB substrate solution (BD Biosciences, Cat #555214) according to manufacturer's recommendation and absorbance at 450 nm was measured on a Victor X5 plate reader.
Data analysis was performed using a sigmoidal dose-response model within Prism™ software (GraphPad). […]

[2] = biological target: T1, human BMP6 (R&D Systems, Cat #507-BP); assay: SPR (MASS-1), mAb captured on anti-human Fc, hBMP6 in solution, 37 C; no dissociation observed, kd manually fixed at 1.00E-05; 37 C; no dissociation observed, kd fixed at 1.00E-05
Method: Equilibrium dissociation constants (KD values) for human and mouse BMP6 binding to purified anti-BMP6 monoclonal antibodies of this invention were determined using a real-time surface plasmon resonance (SPR) biosensor instrument, MASS-1. All binding studies were performed in 10 mM HEPES, 150 mM NaCl, 3 mM EDTA, 1 μg/mL Heparin, and 0.05% v/v Surfactant Tween-20, pH 7.4 (HBS-EHT) running buffer at 25° C. and 37° C. The HCA sensor surface was first derivatized by amine coupling the monoclonal mouse anti-human Fc antibody (GE, #BR100839) and anti-BMP6 monoclonal antibodies were individually captured. Different concentrations of human BMP6 reagents (hBMP6; R&D Systems, Cat #507-BP; 60 nM-0.94 nM; 4-fold serial dilution) or mouse BMP6 (mBMP6; R&D Systems, Cat #6325-BM; 60 nM and 15 nM) prepared in HBS-EHT running buffer were injected over the captured anti-BMP6 monoclonal antibody for 4 minutes at a flow rate of 30 μL/minute, while the dissociation of BMP6 reagent bound to captured anti-BMP6 monoclonal antibody was monitored for 10 minutes in HBS-EHT running buffer. Kinetic association (kₐ) and dissociation (kd) rate constants were determined by fitting the real-time binding sensorgrams to a 1:1 binding model with mass transport limitation using Scrubber 2.0c software. […]

[3] = biological target: T2, Human GDF3; assay: BLI (Octet HTX), mAb captured on Protein A sensor, 100 nM ligand, 25 C
Method: Binding cross-reactivity of anti-BMP6 monoclonal antibodies to BMP6 family members, (Human: BMP6, BMP5, BMP7, BMP8A, BMP9, BMP10, BMP12, BMP14, BMP3b, Activin A, and GDF3 and mouse: BMP6 and GDF6) was determined using a real-time Bio-Layer Interferometry (BLI) biosensor using Octet HTX instrument. All binding studies were performed in 10 mM HEPES, 150 mM NaCl, 3 mM EDTA, 1 mg/mL BSA, 50 μg/mL Heparin, and 0.05% v/v Surfactant Tween-20, pH 7.4 (HBS-EBHT) buffer at 25° C. with the plate shaking at a speed of 1000 rpm. To assess binding cross-reactivity, Protein A coated Octet biosensor (Pall ForteBio Corp., #18-5010) was first dipped in wells containing […] of anti-BMP6 monoclonal antibodies for 4 minutes followed by submerging in wells containing 100 nM of different BMP6 family members for 4 minutes. The biosensors were washed in HBS-EBHT buffer in between every step of the experiment. At the end of each cycle, the Protein A biosensor was regenerated using three alternate 5 second dips in 10 mM Glycine pH 2.0 and 10 second dip HBS-EBHT buffer. The real-time binding response was monitored during the course of the experiment and the binding response at the end of every step was recorded and tabulated as shown in Tables 8A and 8B.

Row | IC50 [1] [nM] | koff [2] [s⁻¹] | binding response [3] [nm] | Binder
1 | 1.61 | ≤ 1e-05 |  | H4H17871P (antibody, V domains shown, Fully human antibody; also called anti-BMP6 monoclonal antibody; BMP6 antibody of the invention) VH: EVQLVESGGGLVQPGGSLRLSCAASGFTFNNYAMSWVRQAPGKGLEWVSAISGSGDSTYYADSVKGRFTISRDNSKNTLYLQMNSLRAEDTAVYYCAKRSRSSPFDPWGQGTLVTVSS VL: not shown
2 |  |  | 0.03 | H4H17855P (antibody, V domains shown, Fully human antibody; also called anti-BMP6 monoclonal antibody; BMP6 antibody of the invention) VH: EVQLVESGGGLVQPGGSLRLSCAASGFTFSSYAMSWVRQAPGKGLEWVSAISGSGGRTYYTDSVKGRFTMSRDNSKNTLYLQMNSLRAEDTAVYYCAKRPYNSPFDPWGQGTLVTVSS VL: EIVLTQSPGTLSLSPGEGATLSCRASQSVSSSYLAWYQQKPGQAPRLLIYGASSRATGIPDRFSGSGSGTDFTLTISRLEPEDFVVYYCQHFGGTPFTFGGGTKVEIK
